How the values were obtained:
[1] = biological target: PHOX2B Q46K homeodomain (human); assay: native gel or EMSA; quantitative EMSA, purified HD protein with 34 nM fluorescent Q50 P3 probe (TAAT-TAG-ATTA); 20 min at room temperature, 10 mM Tris pH 7.5, 50 mM NaCl, 1 mM MgCl2, 4% glycerol, 0.5 mM DTT, 0.5 mM EDTA, poly(dI-dC), BSA; Tau = 4[P2D][D]/[PD]^2, the factor by which the first HD on the DNA helps the second to bind (monomer on DNA to dimer on DNA)
[2] = biological target: ALX4 homeodomain (amino acids 209-274) (human) (UniProt Q9H161); assay: native gel or EMSA; quantitative EMSA, purified HD protein with 34 nM fluorescent P4 probe (a single G added to the spacer of the P3 probe); same buffer; Tau = 4[P2D][D]/[PD]^2 (monomer on DNA to dimer on DNA)
[3] = biological target: PHOX2B Q46R homeodomain (human); assay: native gel or EMSA; quantitative EMSA, purified HD protein with 34 nM fluorescent Q50 P3 probe (TAAT-TAG-ATTA); 20 min at room temperature, 10 mM Tris pH 7.5, 50 mM NaCl, 1 mM MgCl2, 4% glycerol, 0.5 mM DTT, 0.5 mM EDTA, poly(dI-dC), BSA; Tau = 4[P2D][D]/[PD]^2, the factor by which the first HD on the DNA helps the second to bind (monomer on DNA to dimer on DNA)
[4] = biological target: PITX3 homeodomain (human); assay: native gel or EMSA; quantitative EMSA, purified HD protein with 34 nM fluorescent K50 P3 probe (TAAT-CCG-ATTA); 20 min at room temperature, 10 mM Tris pH 7.5, 50 mM NaCl, 1 mM MgCl2, 4% glycerol, 0.5 mM DTT, 0.5 mM EDTA, poly(dI-dC), BSA; Tau = 4[P2D][D]/[PD]^2 (monomer on DNA to dimer on DNA)
[5] = biological target: OTP homeodomain (amino acids 99-164) (human) (UniProt Q5XKR4); assay: native gel or EMSA; quantitative EMSA, purified HD protein with 34 nM fluorescent P4 probe (a single G added to the spacer of the P3 probe); same buffer; Tau = 4[P2D][D]/[PD]^2 (monomer on DNA to dimer on DNA)

With “PHOX2B Q46K homeodomain (domain or fragment)” the Tau (cooperativity factor) with P3 DNA [1] was 1.4.

Substance “ALX4 homeodomain (amino acids 209-274) (from UniProt Q9H161 209-274) (domain or fragment)” has a Tau (cooperativity factor) with P4 DNA [2] of 0.792.

With “PHOX2B Q46R homeodomain (domain or fragment)” the Tau (cooperativity factor) with P3 DNA [3] was 1.27.

With PITX3 homeodomain (domain or fragment) the Tau (cooperativity factor) with P3 DNA [4] was 0.157.

With “OTP homeodomain (amino acids 99-164) (from UniProt Q5XKR4 99-164) (domain or fragment)” the Tau (cooperativity factor) with P4 DNA [5] was 0.29.
